# Results reported in article PMC11290853.
# Substitutions are numbered along the chain they refer to. Like-named read-outs stand apart in the source and are kept apart here.
# T1: CCK1R(Y140A) expressed in HEK-293 cells (human), P32238
# T1 chain: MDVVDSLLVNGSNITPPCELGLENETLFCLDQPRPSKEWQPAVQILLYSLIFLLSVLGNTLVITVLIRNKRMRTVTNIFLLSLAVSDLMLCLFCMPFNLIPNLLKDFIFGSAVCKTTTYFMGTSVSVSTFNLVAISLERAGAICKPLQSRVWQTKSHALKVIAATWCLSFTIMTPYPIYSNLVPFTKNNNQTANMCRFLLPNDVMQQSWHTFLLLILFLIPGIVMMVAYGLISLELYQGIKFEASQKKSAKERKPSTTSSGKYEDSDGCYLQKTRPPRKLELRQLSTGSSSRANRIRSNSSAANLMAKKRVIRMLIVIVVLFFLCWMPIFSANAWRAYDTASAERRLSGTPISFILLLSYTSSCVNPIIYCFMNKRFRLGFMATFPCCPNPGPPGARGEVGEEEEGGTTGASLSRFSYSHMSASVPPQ
# T2: CCK1R(sterol 7M) expressed in HEK-293 cells (human), P32238
# T2 chain: T1 chain with F130L, S136A, A140Y, G141S, I216L, L219F, I223V, M226A
# T3: CCK2R(sterol 7M) expressed in HEK-293 cells (human), P32239
# T3 chain: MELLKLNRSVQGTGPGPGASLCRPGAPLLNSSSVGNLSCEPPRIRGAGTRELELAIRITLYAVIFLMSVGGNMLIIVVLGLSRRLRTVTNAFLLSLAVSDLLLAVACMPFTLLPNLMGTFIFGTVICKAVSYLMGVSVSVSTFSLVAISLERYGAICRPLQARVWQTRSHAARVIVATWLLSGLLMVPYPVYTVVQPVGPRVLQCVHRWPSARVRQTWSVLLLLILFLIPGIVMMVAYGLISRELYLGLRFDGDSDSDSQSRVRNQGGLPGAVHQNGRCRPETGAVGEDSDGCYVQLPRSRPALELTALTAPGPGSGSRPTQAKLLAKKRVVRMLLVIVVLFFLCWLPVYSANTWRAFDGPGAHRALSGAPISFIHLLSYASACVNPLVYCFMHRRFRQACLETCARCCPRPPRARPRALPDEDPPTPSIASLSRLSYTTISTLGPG
# T4: type 1 cholecystokinin receptor, wild type, expressed in CHO-K1 cells (human), P32238
# T4 chain: T1 chain with A140Y
# T5: type 1 cholecystokinin receptor, wild type, expressed in HEK-293 cells (human), P32238
# T5 chain: T1 chain with A140Y
# T6: type 1 cholecystokinin receptor, wild type, expressed in SRD15 cells (human), P32238
# T6 chain: T1 chain with A140Y
# T7: type 2 cholecystokinin receptor, wild type, expressed in HEK-293 cells (human), P32239
# T7 chain: T3 chain with F143L, S149A, G154S, I225L, L228F, I232V, M235A
# Experiments:
# [1] = target: T1, CCK1R(Y140A) expressed in HEK-293 cells …
# [2] = target: T2, CCK1R(sterol 7M) expressed in HEK-293 …
# [3] = target: T3, CCK2R(sterol 7M) expressed in HEK-293 …
# [4] = target: T4, type 1 cholecystokinin receptor, wild …
# [5] = target: T5, type 1 cholecystokinin receptor, wild …
# [6] = target: T6, type 1 cholecystokinin receptor, wild …
# [7] = target: T7, type 2 cholecystokinin receptor, wild …
# [8] = target: T1, CCK1R(Y140A) expressed in HEK-293 cells …; test: radioligand binding
# [9] = target: T2, CCK1R(sterol 7M) expressed in HEK-293 …; test: radioligand binding
# [10] = target: T3, CCK2R(sterol 7M) expressed in HEK-293 …; test: radioligand binding
# [11] = target: T5, type 1 cholecystokinin receptor, wild …; test: radioligand binding
# [12] = target: T7, type 2 cholecystokinin receptor, wild …; test: radioligand binding
# [13] = target: T1, CCK1R(Y140A) expressed in HEK-293 cells …; test: radioligand binding
# [14] = target: T2, CCK1R(sterol 7M) expressed in HEK-293 …; test: radioligand binding
# [15] = target: T3, CCK2R(sterol 7M) expressed in HEK-293 …; test: radioligand binding
# [16] = target: T4, type 1 cholecystokinin receptor, wild …; test: radioligand binding
# [17] = target: T5, type 1 cholecystokinin receptor, wild …; test: radioligand binding
# [18] = target: T6, type 1 cholecystokinin receptor, wild …; test: radioligand binding
# [19] = target: T7, type 2 cholecystokinin receptor, wild …; test: radioligand binding
binder,measurement,setting,value
"WMDF (modifications not checked) [CCK-4, C-terminal tetrapeptide of cholecystokinin]","iCa^2+, pEC50; HEK-293 cells, + Chol",[1],5.7
same,"iCa^2+, pEC50; HEK-293 cells, control",[1],5.7
same,"iCa^2+, pEC50; HEK-293 cells, + Chol",[2],6.8
same,"iCa^2+, pEC50; HEK-293 cells, control",[2],6.7
same,"iCa^2+, pEC50; HEK-293 cells, + Chol",[3],9.2
same,"iCa^2+, pEC50; HEK-293 cells, control",[3],9.1
same,"iCa^2+, pEC50; CHO-CCK1R cells",[4],5.3
same,"iCa^2+, pEC50; HEK-293 cells, + Chol",[5],6.2
same,"iCa^2+, pEC50; HEK-293 cells, control",[5],5.5
same,"iCa^2+, pEC50; SRD15-CCK1R cells",[6],6.8
same,"iCa^2+, pEC50; SRD15-CCK1R cells + MβCD (cholesterol depleted)",[6],5.7
same,"iCa^2+, pEC50; HEK-293 cells, + Chol",[7],9.4
same,"iCa^2+, pEC50; HEK-293 cells, control",[7],9.5
same,pIC50,[8],4.3
same,pIC50,[9],< 4
same,pIC50,[10],7.6
same,pIC50,[11],4
same,pIC50,[12],7.8
same,pIC50,[13],4.3
same,pIC50,[14],< 4
same,pIC50,[15],7.2
same,pIC50,[16],4.5
same,pIC50,[17],4.2
same,pIC50,[18],5.5
same,pIC50,[19],7.7
